The target in experiment [1] is T1, human FcRn (human, UniProt P55899). Description: SPR, pH 7.4. In general terms: SPR reads the build-up and loss of mass on a sensor chip optically.
The next experiment has as its target FcγRIIIa F158 (human, UniProt P08637). Description: SPR.
Another experiment has as its target T2, FcγRIIb (human, UniProt P31994).
T2 chain: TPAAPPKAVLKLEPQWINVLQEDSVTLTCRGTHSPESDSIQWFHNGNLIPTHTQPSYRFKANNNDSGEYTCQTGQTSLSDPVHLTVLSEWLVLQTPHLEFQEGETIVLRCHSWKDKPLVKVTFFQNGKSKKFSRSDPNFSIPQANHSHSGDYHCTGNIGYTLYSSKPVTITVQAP
Put plainly: SPR.

The target in experiment [2] is T1, human FcRn. Description: SPR, pH 6.0.
In another experiment the target is T3, FcγRIIa R131 (human, UniProt P12318).
T3 chain: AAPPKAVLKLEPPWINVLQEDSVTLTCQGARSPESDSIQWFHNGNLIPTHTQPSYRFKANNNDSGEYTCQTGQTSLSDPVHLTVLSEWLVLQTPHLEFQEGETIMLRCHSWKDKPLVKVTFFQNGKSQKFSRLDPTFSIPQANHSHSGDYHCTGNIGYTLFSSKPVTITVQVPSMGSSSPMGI
Description: SPR.

The target of another experiment is T4, FcγRIIa H131 (human, UniProt P12318).
T4 chain: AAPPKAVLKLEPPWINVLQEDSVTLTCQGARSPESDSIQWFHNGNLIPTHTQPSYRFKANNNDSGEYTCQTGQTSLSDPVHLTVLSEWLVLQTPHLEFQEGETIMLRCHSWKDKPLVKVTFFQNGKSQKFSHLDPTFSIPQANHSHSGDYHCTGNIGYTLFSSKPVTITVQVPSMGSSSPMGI
Description: SPR.

For a further experiment, the target named is FcγRIIIa V158 (human, UniProt P08637). Put plainly: SPR.
Sequence of FcγRIIIa V158 (P08637 17-208 F176V): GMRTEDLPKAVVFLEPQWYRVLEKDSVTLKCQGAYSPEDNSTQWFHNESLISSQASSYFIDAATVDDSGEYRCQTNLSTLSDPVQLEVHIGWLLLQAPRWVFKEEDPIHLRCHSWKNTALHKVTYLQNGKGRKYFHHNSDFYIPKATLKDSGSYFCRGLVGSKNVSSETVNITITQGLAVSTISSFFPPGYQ
For another experiment, the target named is T5, FcγRIa (human, UniProt P12314).
T5 chain: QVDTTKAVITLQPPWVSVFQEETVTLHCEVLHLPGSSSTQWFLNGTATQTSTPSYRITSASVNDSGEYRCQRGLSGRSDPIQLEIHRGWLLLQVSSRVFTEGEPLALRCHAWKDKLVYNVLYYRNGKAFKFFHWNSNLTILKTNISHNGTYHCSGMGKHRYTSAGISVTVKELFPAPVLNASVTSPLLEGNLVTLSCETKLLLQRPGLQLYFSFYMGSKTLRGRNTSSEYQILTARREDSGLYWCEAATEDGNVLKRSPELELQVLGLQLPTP
Description: SPR.

T1 sequence (P55899 24-297, chain 1 of 2): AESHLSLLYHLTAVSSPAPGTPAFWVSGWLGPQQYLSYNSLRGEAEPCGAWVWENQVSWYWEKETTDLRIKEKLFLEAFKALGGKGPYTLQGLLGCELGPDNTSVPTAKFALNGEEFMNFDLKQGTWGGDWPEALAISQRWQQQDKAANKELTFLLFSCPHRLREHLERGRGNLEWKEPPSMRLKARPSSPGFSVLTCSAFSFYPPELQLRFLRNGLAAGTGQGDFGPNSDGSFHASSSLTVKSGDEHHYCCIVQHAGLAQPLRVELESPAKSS
T1 sequence (chain, as listed by the source, chain 2 of 2): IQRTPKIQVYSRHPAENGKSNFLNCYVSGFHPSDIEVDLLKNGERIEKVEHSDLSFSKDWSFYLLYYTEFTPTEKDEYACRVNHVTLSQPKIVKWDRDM
Sequence of FcγRIIIa F158 (P08637 17-208): as the sequence (P08637 17-208 F176V) above, with V160F counted along it

B1: IgG1-CD137-009-HC7LC2-FEAR (antibody)
chain 1: EVQLVESGGGLVQPGRSLRLSCTASGFSLNDYWMSWVRQAPGKGLEWVGYIDVGGSLYYAASVKGRFTISRDDSKSIAYLQMNSLKTEDTAVYYCARGGLTYGFDLWGQGTLVTVSSASTKGPSVFPLAPSSKSTSGGTAALGCLVKDYFPEPVTVSWNSGALTSGVHTFPAVLQSSGLYSLSSVVTVPSSSLGTQTYICNVNHKPSNTKVDKRVEPKSCDKTHTCPPCPAPEFEGGPSVFLFPPKPKDTLMISRTPEVTCVVVAVSHEDPEVKFNWYVDGVEVHNAKTKPREEQYNSTYRVVSVLTVLHQDWLNGKEYKCKVSNKALPAPIEKTISKAKGQPREPQVYTLPPSREEMTKNQVSLTCLVKGFYPSDIAVEWESNGQPENNYKTTPPVLDSDGSFFLYSRLTVDKSRWQQGNVFSCSVMHEALHNHYTQKSLSLSPG
chain 2: DIVMTQSPSSLSASVGDRVTITCQASEDISSYLAWYQQKPGKAPKRLIYGASDLASGVPSRFSASGSGTDYTFTISSLQPEDIATYYCHYYATISGLGVAFGGGTKVEIKRTVAAPSVFIFPPSDEQLKSGTASVVCLLNNFYPREAKVQWKVDNALQSGNSQESVTEQDSKDSTYSLSSTLTLSKADYEKHKVYACEVTHQGLSSPVTKSFNRGEC
As a reminder, the Kd is the free concentration of one partner at which half of the binding sites on the other are occupied at equilibrium, for simple one-to-one binding. Consider B1, for which the binding result with human FcRn [1], with FcγRIIIa F158, with FcγRIIb, in the experiment with FcγRIIa R131, with FcγRIIa H131 and in the experiment with FcγRIIIa V158 was “no binding” each time. The binding result in the experiment with FcγRIa was “no binding”. In the experiment with human FcRn [2], this molecule showed a Kd of 375 nM.

For the origin of these results see patent US20260347498 (published 2026).
